Test results: US7008780, “Chimeric DNA-binding proteins” (Massachusetts Institute of Technology)

How the values were obtained:
Zif268 zinc fingers 1-3 [1] = biological target: T1, Zif268 zinc fingers 1-3 (UniProt P08046 P08046:336-416); experiment: EMSA; 10 mM Hepes pH 7.9, 50 mM KCl, 0.5 mM EDTA, 30 C; apparent Kd
[2] = biological target: Oct-1 POU domain (POU-specific domain and homeodomain) (UniProt P14859 P14859:280-438); experiment: as above
[3] = biological target: GST-ZFHD1 (Zif268 fingers 1-2, GGRR linker, Oct-1 homeodomain) (synthetic chimera (mouse Zif268 / human …, UniProt P08046;P14859 P08046:333-390,P14859:378-439)); experiment: as above; details: tags: N-terminal GST (pGEX2T)
Zif268 zinc fingers 1-3 [4] = biological target: T1, Zif268 zinc fingers 1-3; experiment: EMSA

Sequence of Oct-1 POU domain (POU-specific domain and homeodomain) (P14859 280-438, one chain of several): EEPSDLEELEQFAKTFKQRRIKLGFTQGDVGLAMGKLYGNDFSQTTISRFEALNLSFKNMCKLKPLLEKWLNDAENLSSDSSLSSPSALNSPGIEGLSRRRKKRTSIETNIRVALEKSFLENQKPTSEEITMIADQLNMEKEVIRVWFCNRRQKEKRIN

B1: Zif268 site probe (dsDNA)
DNA 1: CCTCGAGGCGCCCACGCCTAGGTACC
DNA 2: GGTACCTAGGCGTGGGCGCCTCGAGG
How did the Kd (Zif268 zinc fingers 1-3 [1]) turn out when B1 was run?
The Kd was 0.33 nM.

B2: Oct-1 octamer site probe (dsDNA)
DNA 1: CCTCGAGGTCATTTGCATACTAGGTACC
DNA 2: GGTACCTAGTATGCAAATGACCTCGAGG
How did the Kd [2] turn out when B2 was run?
Its Kd is 0.18 nM.

B3: hybrid site probe TAATGATGGGCG (dsDNA)
DNA 1: CCTCGAGGCGCCCATCATTACTAGGTACC
DNA 2: GGTACCTAGTAATGATGGGCGCCTCGAGG
For B3, which Kd [3] is on record?
Its Kd is 0.84 nM.

B4: hybrid site probe TCATTATGGGCG (dsDNA)
DNA 1: CCTCGAGGTCATTATGGGCGCTAGGTACC
DNA 2: GGTACCTAGCGCCCATAATGACCTCGAGG
Does B4 bind (Zif268 zinc fingers 1-3 [4])?
Result: no binding
